Results taken from publication PMC11077089, “Molecular basis of A. thaliana KEOPS complex in biosynthesizing tRNA t6A”.
Numbering of substitutions follows the chain as printed.

What was measured:
Experiment in all cases: MST; MST: 20 mM PBS pH 7.5, 300 mM NaCl, 0.05% Tween 20, 25 C, 50 nM RNA; EMSA: 20 mM Tris-HCl pH 7.5, 300 mM NaCl, 5 mM b-mercaptoethanol, 20% glycerol, agarose gel in Tris-glycine pH 8.0 (8.5 for FAM-RNA), 4 C
[1] = biological target: T1, BUD32;CGI121 (Arabidopsis thaliana;Arabidopsis …, UniProt Q94K14;Q6NMZ4 1-226;1-172, |); conditions: protein: recombinant;recombinant; tags: none (6His on partner CGI121);6His (C-term); copies: 1;1; label: 5' 6-FAM; tRNA cloverleaf
T1 sequence 1: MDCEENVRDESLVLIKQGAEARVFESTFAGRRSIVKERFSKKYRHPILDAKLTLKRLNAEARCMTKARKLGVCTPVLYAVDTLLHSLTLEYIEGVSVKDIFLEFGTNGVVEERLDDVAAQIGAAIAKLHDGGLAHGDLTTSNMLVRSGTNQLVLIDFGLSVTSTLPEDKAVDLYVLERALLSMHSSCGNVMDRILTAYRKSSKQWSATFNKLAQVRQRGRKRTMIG
T1 sequence 2: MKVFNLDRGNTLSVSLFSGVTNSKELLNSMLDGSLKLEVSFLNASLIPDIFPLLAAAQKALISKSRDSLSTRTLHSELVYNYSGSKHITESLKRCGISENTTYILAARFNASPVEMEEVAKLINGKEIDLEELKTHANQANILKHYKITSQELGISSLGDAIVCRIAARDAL

[2] = biological target: T2, KAE1;BUD32;PCC1 (Arabidopsis thaliana;Arabidopsis …, UniProt O49653;Q94K14;Q8GWD7 1-353;1-226;1-96, ||); conditions: protein: recombinant;recombinant;recombinant; tags: none (6His on partner PCC1);none (6His on partner CGI121);6His (C-term); chain copies: 2;2;2; label: 5' 6-FAM; tRNA cloverleaf
T2 sequence 1: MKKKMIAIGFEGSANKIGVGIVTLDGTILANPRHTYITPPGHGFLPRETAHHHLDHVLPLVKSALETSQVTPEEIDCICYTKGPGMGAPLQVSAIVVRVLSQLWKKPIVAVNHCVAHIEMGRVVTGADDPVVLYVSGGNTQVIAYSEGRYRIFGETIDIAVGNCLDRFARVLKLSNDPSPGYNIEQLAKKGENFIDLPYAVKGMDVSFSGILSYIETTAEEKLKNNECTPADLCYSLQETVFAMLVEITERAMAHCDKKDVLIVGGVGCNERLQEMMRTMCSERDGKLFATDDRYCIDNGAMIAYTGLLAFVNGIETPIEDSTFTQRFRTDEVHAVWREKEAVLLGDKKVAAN
T2 sequence 2: T1 sequence 1
T2 sequence 3: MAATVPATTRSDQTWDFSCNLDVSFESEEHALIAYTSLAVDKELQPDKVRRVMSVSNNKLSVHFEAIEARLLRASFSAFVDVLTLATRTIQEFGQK

[3] = biological target: T3, KAE1 mutant-1;BUD32;CGI121;PCC1 (Arabidopsis thaliana;Arabidopsis …, UniProt O49653;Q94K14;Q6NMZ4;Q8GWD7 1-353;1-226;1-172;1-96, Y36R;I37K;T38R;P39R;P40R;G41W;H42D|||); conditions: protein: recombinant;recombinant;recombinant;recombinant; tags: ;none (6His on partner CGI121);6His (C-term);6His (C-term); chain copies: 2;2;2;2; label: 5' 6-FAM; tRNA cloverleaf
T3 sequence 1: T2 sequence 1 with Y36R, I37K, T38R, P39R, P40R, G41W, H42D
T3 sequence 2: T1 sequence 1
T3 sequence 3: T1 sequence 2
T3 sequence 4: T2 sequence 3

[4] = biological target: T4, KAE1;BUD32 S163R;CGI121;PCC1 (Arabidopsis thaliana;Arabidopsis …, UniProt O49653;Q94K14;Q6NMZ4;Q8GWD7 1-353;1-226;1-172;1-96, |S163R||); conditions: protein: recombinant;recombinant;recombinant;recombinant; tags: none (6His on partner PCC1);;6His (C-term);6His (C-term); chain copies: 2;2;2;2; label: 5' 6-FAM; tRNA cloverleaf
T4 sequence 1: T2 sequence 1
T4 sequence 2: T1 sequence 1 with S163R
T4 sequence 3: T1 sequence 2
T4 sequence 4: T2 sequence 3

B1: 5'-6FAM-tRNAArgCCU (structured_RNA)
RNA: GCGCCUGUAGCUCAGUGGAUAGAGCGUCUGUUUCCUAAGCAGAAGGUCGUAGGUUCGACCCCUACCUGGCGCGCCA
- Kd [1]: 61.6 ± 15 µM
- Kd [2]: 38 ± 13.6 µM
- Kd [3]: 5.27 ± 1.2 µM
- Kd [4]: 330 ± 11.1 µM
